Experimental findings from paper PMC10397247 are described below.

Common to all, as to experiment: two-hybrid library CCNG1;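 note: natural log of median RNA to DNA barcode read ratio; higher means stronger binding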
For one assay, the target named is T1, P8A-bN.
T1 chain: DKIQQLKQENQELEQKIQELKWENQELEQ

The target of another assay is T2, P7A-bN.
T2 chain: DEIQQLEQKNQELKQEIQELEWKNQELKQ

The target of the next assay is T3, P9A-bN.
T3 chain: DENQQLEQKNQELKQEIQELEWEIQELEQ

The next assay addresses T4, P5A-bN.
T4 chain: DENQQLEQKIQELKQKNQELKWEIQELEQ

In another assay the target is T5, P4A-bN.
T5 chain: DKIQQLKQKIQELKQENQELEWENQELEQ

A further assay deals with T6, P5A.
T6 chain: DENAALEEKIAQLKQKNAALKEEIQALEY

The target of another assay is T7, P6A-bN.
T7 chain: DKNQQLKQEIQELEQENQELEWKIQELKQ

For another assay, the target named is T8, P3A-bN.
T8 chain: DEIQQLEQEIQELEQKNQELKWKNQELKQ

In the next assay the target is T9, P5SHb.
T9 chain: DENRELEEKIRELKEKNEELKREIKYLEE

For a further assay, the target named is T10, P6SHb.
T10 chain: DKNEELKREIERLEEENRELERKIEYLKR

The target in a further assay is T11, P8SHb.
T11 chain: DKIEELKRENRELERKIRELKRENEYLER

The target of another assay is T12, P7SHb.
T12 chain: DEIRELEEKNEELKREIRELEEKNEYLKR

Another assay deals with T13, P9SHb.
T13 chain: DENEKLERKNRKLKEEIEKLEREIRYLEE

The target in the next assay is T14, P4SHb.
T14 chain: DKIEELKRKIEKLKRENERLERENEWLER

The target in another assay is T15, P8A-bS.
T15 chain: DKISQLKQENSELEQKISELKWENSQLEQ

Another assay deals with T16, P5A-bS.
T16 chain: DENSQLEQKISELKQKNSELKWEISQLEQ

The target in a further assay is T17, P3A-bS.
T17 chain: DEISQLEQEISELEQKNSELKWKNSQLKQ

The target in a further assay is T18, P9A-bS.
T18 chain: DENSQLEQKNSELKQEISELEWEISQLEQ

The target of another assay is T19, P7A-bS.
T19 chain: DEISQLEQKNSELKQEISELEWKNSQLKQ

Another assay addresses T20, P4A-bS.
T20 chain: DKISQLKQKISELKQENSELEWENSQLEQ

The target of a further assay is T21, 4H3175-bA.
T21 chain: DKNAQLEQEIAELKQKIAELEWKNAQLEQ

For a further assay, the target named is T22, 4H3974-bA.
T22 chain: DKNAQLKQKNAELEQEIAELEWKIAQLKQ

A further assay concerns the target T23, 4H570-bA.
T23 chain: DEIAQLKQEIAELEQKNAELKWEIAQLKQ

In a further assay the target is T24, 4H3858-bA.
T24 chain: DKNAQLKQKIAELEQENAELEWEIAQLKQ

The next assay deals with T25, 4H3497-bA.
T25 chain: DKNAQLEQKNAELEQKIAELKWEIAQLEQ

For another assay, the target named is T26, 4H850-bA.
T26 chain: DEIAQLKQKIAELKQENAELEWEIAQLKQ

A further assay deals with T27, 4H3926-bA.
T27 chain: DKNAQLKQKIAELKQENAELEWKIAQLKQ

The next assay deals with T28, 4H591-bA.
T28 chain: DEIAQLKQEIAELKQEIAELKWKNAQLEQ

In another assay the target is T29, 4H3162-bA.
T29 chain: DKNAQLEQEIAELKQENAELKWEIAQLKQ

For the next assay, the target named is T30, 4H3298-bA.
T30 chain: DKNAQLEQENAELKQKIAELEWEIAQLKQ

The next assay has as its target T31, 4H1985-bA.
T31 chain: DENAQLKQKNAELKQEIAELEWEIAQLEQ

For a further assay, the target named is T32, 4H906-bA.
T32 chain: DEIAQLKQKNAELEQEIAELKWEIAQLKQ

For another assay, the target named is T33, 4H1710-bA.
T33 chain: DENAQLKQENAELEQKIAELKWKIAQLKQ

In another assay the target is T34, 4H3817-bA.
T34 chain: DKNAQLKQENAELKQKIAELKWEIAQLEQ

The target of a further assay is T35, 4H3628-bA.
T35 chain: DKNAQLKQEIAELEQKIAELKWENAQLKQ

A further assay deals with T36, 4H3462-bA.
T36 chain: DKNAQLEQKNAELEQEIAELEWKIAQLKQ

A further assay has as its target T37, 4H3277-bA.
T37 chain: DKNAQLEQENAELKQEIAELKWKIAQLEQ

The target in another assay is T38, 4H1544-bA.
T38 chain: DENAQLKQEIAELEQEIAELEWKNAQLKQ

The target in a further assay is T39, 4H626-bA.
T39 chain: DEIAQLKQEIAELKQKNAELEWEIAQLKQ

For the next assay, the target named is T40, 4H1899-bA.
T40 chain: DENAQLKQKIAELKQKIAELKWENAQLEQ

The next assay concerns the target T41, 4H3613-bA.
T41 chain: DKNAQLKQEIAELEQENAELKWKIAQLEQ

B1: P2A-bN (peptide)
chain: DKIQQLKQKNQELKQKNQELKWKIQELKQ
In the case of B1, the interaction score was -0.172 with P8A-bN; -2.31 with P7A-bN; -0.223 with P9A-bN; -0.834 in the assay with P5A-bN; -0.0603 in the assay with P4A-bN; -1.29 with P5A. Also, the interaction score with P6A-bN was -0.329; with P3A-bN it was -1.27.

B2: P3A-bN (peptide)
chain: DEIQQLEQEIQELEQKNQELKWKNQELKQ
As for B2, the interaction score was -0.0492 with P8A-bN; 0.502 with P7A-bN; 0.0484 in the assay with P9A-bN; -1.91 with P5A-bN; 1.79 in the assay with P4A-bN; 0.0905 with P6A-bN. Besides, in the assay with P3A-bN, the interaction score was -0.693.

B3: P5SHb (peptide)
chain: DENRELEEKIRELKEKNEELKREIKYLEE
As to B3, the interaction score in the assay with P5SHb is -0.373; in the assay with P6SHb, 1.24; in the assay with P8SHb, 0.218; with P7SHb, -0.193; in the assay with P9SHb it was -0.0948.

B4: P1A-bN (peptide)
chain: DEIQQLEQENQELEQENQELEWEIQELEQ
For B4, the interaction score is -0.492 with P8A-bN; -1.2 with P7A-bN; -2.46 with P9A-bN; -0.827 with P5A-bN; -0.418 with P4A-bN; -0.545 with P6A-bN. Also, the interaction score in the assay with P3A-bN is -1.29.

B5: P4SHb (peptide)
chain: DKIEELKRKIEKLKRENERLERENEWLER
Consider B5, for which the interaction score with P5SHb was -0.773; with P6SHb it was 0.8; with P8SHb it was -1.17; in the assay with P4SHb, -0.574; with P7SHb it was -1.05; with P9SHb it was 0.746.

B6: P3A-bS (peptide)
chain: DEISQLEQEISELEQKNSELKWKNSQLKQ
Turning to B6, the interaction score is -0.303 with P8A-bS; -0.938 in the assay with P5A-bS; -1.29 in the assay with P3A-bS; 0.297 in the assay with P9A-bS; -0.377 with P7A-bS; 1.45 with P4A-bS.

B7: 4H1544-bA (peptide)
chain: DENAQLKQEIAELEQEIAELEWKNAQLKQ
For the molecule B7, the interaction score with 4H3175-bA is -0.0402; with 4H3974-bA it was 0.562; with 4H570-bA it was -0.0902; with 4H3858-bA, -0.357; in the assay with 4H3497-bA it was 0.215; with 4H850-bA, 0.322. Moreover, the interaction score is 0.0381 in the assay with 4H3926-bA; -0.632 with 4H591-bA; 0.788 with 4H3162-bA; 0.792 with 4H3298-bA; 0.274 with 4H1985-bA; -0.806 with 4H906-bA. The interaction score in the assay with 4H1710-bA came to 2.06; with 4H3817-bA, 0.78; with 4H3628-bA it was 0.77; in the assay with 4H3462-bA, 0.455; with 4H3277-bA, 0.243; with 4H1544-bA, 0.00288. The interaction score in the assay with 4H626-bA is -0.46; in the assay with 4H1899-bA, 1.52; with 4H3613-bA, 0.572.
